# Molecular target: T1, von Willebrand factor (VWF) (UniProt P04275 764-2813)
# T1 construct: von Willebrand factor; Immobilised by amine coupling
# Assay: SPR; VWF attached to a CM4 chip by amine coupling at low density (200 RUs); BDD-FVIII proteins injected in a 3-fold concentration series from 0.22-18 nM, single-cycle kinetics; fit to a 1:1 model; Biacore T200
# Conditions: both partners purified
Binder,Kd,koff,kon
WT-BDD-FVIII (wild-type B-domain-deleted factor VIII) (natural protein) chain 1: ATRRYYLGAVELSWDYMQSDLGELPVDARFPPRVPKSFPFNTSVVYKKTLFVEFTDHLFNIAKPRPPWMGLLGPTIQAEVYDTVVITLKNMASHPVSLHAVGVSYWKASEGAEYDDQTSQREKEDDKVFPGGSHTYVWQVLKENGPMASDPLCLTYSYLSHVDLVKDLNSGLIGALLVCREGSLAKEKTQTLHKFILLFAVFDEGKSWHSETKNSLMQDRDAASARAWPKMHTVNGYVNRSLPGLIGCHRKSVYWHVIGMGTTPEVHSIFLEGHTFLVRNHRQASLEISPITFLTAQTLLMDLGQFLLFCHISSHQHDGMEAYVKVDSCPEEPQLRMKNNEEAEDYDDDLTDSEMDVVRFDDDNSPSFIQIRSVAKKHPKTWVHYIAAEEEDWDYAPLVLAPDDRSYKSQYLNNGPQRIGRKYKKVRFMAYTDETFKTREAIQHESGILGPLLYGEVGDTLLIIFKNQASRPYNIYPHGITDVRPLYSRRLPKGVKHLKDFPILPGEIFKYKWTVTVEDGPTKSDPRCLTRYYSSFVNMERDLASGLIGPLLICYKESVDQRGNQIMSDKRNVILFSVFDENRSWYLTENIQRFLPNPAGVQLEDPEFQASNIMHSINGYVFDSLQLSVCLHEVAYWYILSIGAQTDFLSVFFSGYTFKHKMVYEDTLTLFPFSGETVFMSMENPGLWILGCHNSDFRNRGMTALLKVSSCDKNTGDYYEDSYEDISAYLLSKNNAIEPR chain 2: EITRTTLQSDQEEIDYDDTISVEMKKEDFDIYDEDENQSPRSFQKKTRHYFIAAVERLWDYGMSSSPHVLRNRAQSGSVPQFKKVVFQEFTDGSFTQPLYRGELNEHLGLLGPYIRAEVEDNIMVTFRNQASRPYSFYSSLISYEEDQRQGAEPRKNFVKPNETKTYFWKVQHHMAPTKDEFDCKAWAYFSDVDLEKDVHSGLIGPLLVCHTNTLNPAHGRQVTVQEFALFFTIFDETKSWYFTENMERNCRAPCNIQMEDPTFKENYRFHAINGYIMDTLPGLVMAQDQRIRWYLLSMGSNENIHSIHFSGHVFTVRKKEEYKMALYNLYPGVFETVEMLPSKAGIWRVECLIGEHLHAGMSTLFLVYSNKCQTPLGMASGHIRDFQITASGQYGQWAPKLARLHYSGSINAWSTKEPFSWIKVDLLAPMIIHGIKTQGARQKFSSLYISQFIIMYSLDGKKWQTYRGNSTGTLMVFFGNVDSSGIKHNIFNPPIIARYIRLHPTHYSIRSTLRMELMGCDLNSCSMPLGMESKAISDAQITASSYFTNMFATWSPSKARLHLQGRSNAWRPQVNNPKEWLQVDFQKTMKVTGVTTQGVKSLLTSMYVKEFLISSSQDGHQWTLFFQNGKVKVFQGNQDSFTPVVNSLDPPLLTRYLRIHPQSWVHQIALRMEVLGCEAQDLY,0.29 nM,0.00069 s⁻¹,2.4e+06 M⁻¹ s⁻¹
BDD-FVIII-F2196K (natural protein) chain 1: ATRRYYLGAVELSWDYMQSDLGELPVDARFPPRVPKSFPFNTSVVYKKTLFVEFTDHLFNIAKPRPPWMGLLGPTIQAEVYDTVVITLKNMASHPVSLHAVGVSYWKASEGAEYDDQTSQREKEDDKVFPGGSHTYVWQVLKENGPMASDPLCLTYSYLSHVDLVKDLNSGLIGALLVCREGSLAKEKTQTLHKFILLFAVFDEGKSWHSETKNSLMQDRDAASARAWPKMHTVNGYVNRSLPGLIGCHRKSVYWHVIGMGTTPEVHSIFLEGHTFLVRNHRQASLEISPITFLTAQTLLMDLGQFLLFCHISSHQHDGMEAYVKVDSCPEEPQLRMKNNEEAEDYDDDLTDSEMDVVRFDDDNSPSFIQIRSVAKKHPKTWVHYIAAEEEDWDYAPLVLAPDDRSYKSQYLNNGPQRIGRKYKKVRFMAYTDETFKTREAIQHESGILGPLLYGEVGDTLLIIFKNQASRPYNIYPHGITDVRPLYSRRLPKGVKHLKDFPILPGEIFKYKWTVTVEDGPTKSDPRCLTRYYSSFVNMERDLASGLIGPLLICYKESVDQRGNQIMSDKRNVILFSVFDENRSWYLTENIQRFLPNPAGVQLEDPEFQASNIMHSINGYVFDSLQLSVCLHEVAYWYILSIGAQTDFLSVFFSGYTFKHKMVYEDTLTLFPFSGETVFMSMENPGLWILGCHNSDFRNRGMTALLKVSSCDKNTGDYYEDSYEDISAYLLSKNNAIEPR chain 2: EITRTTLQSDQEEIDYDDTISVEMKKEDFDIYDEDENQSPRSFQKKTRHYFIAAVERLWDYGMSSSPHVLRNRAQSGSVPQFKKVVFQEFTDGSFTQPLYRGELNEHLGLLGPYIRAEVEDNIMVTFRNQASRPYSFYSSLISYEEDQRQGAEPRKNFVKPNETKTYFWKVQHHMAPTKDEFDCKAWAYFSDVDLEKDVHSGLIGPLLVCHTNTLNPAHGRQVTVQEFALFFTIFDETKSWYFTENMERNCRAPCNIQMEDPTFKENYRFHAINGYIMDTLPGLVMAQDQRIRWYLLSMGSNENIHSIHFSGHVFTVRKKEEYKMALYNLYPGVFETVEMLPSKAGIWRVECLIGEHLHAGMSTLFLVYSNKCQTPLGMASGHIRDFQITASGQYGQWAPKLARLHYSGSINAWSTKEPFSWIKVDLLAPMIIHGIKTQGARQKFSSLYISQFIIMYSLDGKKWQTYRGNSTGTLMVFFGNVDSSGIKHNIFNPPIIARYIRLHPTHYSIRSTLRMELMGCDLNSCSMPLGMESKAISDAQITASSYKTNMFATWSPSKARLHLQGRSNAWRPQVNNPKEWLQVDFQKTMKVTGVTTQGVKSLLTSMYVKEFLISSSQDGHQWTLFFQNGKVKVFQGNQDSFTPVVNSLDPPLLTRYLRIHPQSWVHQIALRMEVLGCEAQDLY,0.2 nM,0.00054 s⁻¹,2.9e+06 M⁻¹ s⁻¹
BDD-FVIII-M2199A (natural protein) chain 1: ATRRYYLGAVELSWDYMQSDLGELPVDARFPPRVPKSFPFNTSVVYKKTLFVEFTDHLFNIAKPRPPWMGLLGPTIQAEVYDTVVITLKNMASHPVSLHAVGVSYWKASEGAEYDDQTSQREKEDDKVFPGGSHTYVWQVLKENGPMASDPLCLTYSYLSHVDLVKDLNSGLIGALLVCREGSLAKEKTQTLHKFILLFAVFDEGKSWHSETKNSLMQDRDAASARAWPKMHTVNGYVNRSLPGLIGCHRKSVYWHVIGMGTTPEVHSIFLEGHTFLVRNHRQASLEISPITFLTAQTLLMDLGQFLLFCHISSHQHDGMEAYVKVDSCPEEPQLRMKNNEEAEDYDDDLTDSEMDVVRFDDDNSPSFIQIRSVAKKHPKTWVHYIAAEEEDWDYAPLVLAPDDRSYKSQYLNNGPQRIGRKYKKVRFMAYTDETFKTREAIQHESGILGPLLYGEVGDTLLIIFKNQASRPYNIYPHGITDVRPLYSRRLPKGVKHLKDFPILPGEIFKYKWTVTVEDGPTKSDPRCLTRYYSSFVNMERDLASGLIGPLLICYKESVDQRGNQIMSDKRNVILFSVFDENRSWYLTENIQRFLPNPAGVQLEDPEFQASNIMHSINGYVFDSLQLSVCLHEVAYWYILSIGAQTDFLSVFFSGYTFKHKMVYEDTLTLFPFSGETVFMSMENPGLWILGCHNSDFRNRGMTALLKVSSCDKNTGDYYEDSYEDISAYLLSKNNAIEPR chain 2: EITRTTLQSDQEEIDYDDTISVEMKKEDFDIYDEDENQSPRSFQKKTRHYFIAAVERLWDYGMSSSPHVLRNRAQSGSVPQFKKVVFQEFTDGSFTQPLYRGELNEHLGLLGPYIRAEVEDNIMVTFRNQASRPYSFYSSLISYEEDQRQGAEPRKNFVKPNETKTYFWKVQHHMAPTKDEFDCKAWAYFSDVDLEKDVHSGLIGPLLVCHTNTLNPAHGRQVTVQEFALFFTIFDETKSWYFTENMERNCRAPCNIQMEDPTFKENYRFHAINGYIMDTLPGLVMAQDQRIRWYLLSMGSNENIHSIHFSGHVFTVRKKEEYKMALYNLYPGVFETVEMLPSKAGIWRVECLIGEHLHAGMSTLFLVYSNKCQTPLGMASGHIRDFQITASGQYGQWAPKLARLHYSGSINAWSTKEPFSWIKVDLLAPMIIHGIKTQGARQKFSSLYISQFIIMYSLDGKKWQTYRGNSTGTLMVFFGNVDSSGIKHNIFNPPIIARYIRLHPTHYSIRSTLRMELMGCDLNSCSMPLGMESKAISDAQITASSYFTNAFATWSPSKARLHLQGRSNAWRPQVNNPKEWLQVDFQKTMKVTGVTTQGVKSLLTSMYVKEFLISSSQDGHQWTLFFQNGKVKVFQGNQDSFTPVVNSLDPPLLTRYLRIHPQSWVHQIALRMEVLGCEAQDLY,0.25 nM,0.00067 s⁻¹,2.7e+06 M⁻¹ s⁻¹

# Source: PMC4304825, “Six Amino Acid Residues in a 1200 Å2 Interface Mediate Binding of Factor VIII to an IgG4κ Inhibitory Antibody” (PLoS ONE, 2015)
